{"source": "IntAct's records for PubMed 23001144", "parents": {"B1": {"name": "Translocated intimin receptor Tir (Escherichia coli O127:H6 (strain E2348/69 / EPEC)), B7UM99 (parent)", "chain": "MPIGNLGNNVNGNHLIPPAPPLPSQTDGAARGGTGHLISSTGALGSRSLFSPLRNSMADSVDSRDIPGLPTNPSRLAAATSETCLLGGFEVLHDKGPLDILNTQIGPSAFRVEVQADGTHAAIGEKNGLEVSVTLSPQEWSSLQSIDTEGKNRFVFTGGRGGSGHPMVTVASDIAEARTKILAKLDPDNHGGRQPKDVDTRSVGVGSASGIDDGVVSETHTSTTNSSVRSDPKFWVSVGAIAAGLAGLAATGIAQALALTPEPDDPTTTDPDQAANAAESATKDQLTQEAFKNPENQKVNIDANGNAIPSGELKDDIVEQIAQQAKEAGEVARQQAVESNAQAQQRYEDQHARRQEELQLSSGIGYGLSSALIVAGGIGAGVTTALHRRNQPAEQTTTTTTHTVVQQQTGGNTPAQGGTDATRAEDASLNRRDSQGSVASTHWSDSSSEVVNPYAEVGGARNSLSAHQPEEHIYDEVAADPGYSVIQNFSGSGPVTGRLIGTPGQGIQSTYALLANSGGLRLGMGGLTSGGESAVSSVNAAPTPGPVRFV"}, "B2": {"name": "Translocated intimin receptor Tir (Escherichia coli O157:H7), Q7DB77 (parent)", "chain": "MPIGNLGHNPNVNNSIPPAPPLPSQTDGAGGRGQLINSTGPLGSRALFTPVRNSMADSGDNRASDVPGLPVNPMRLAASEITLNDGFEVLHDHGPLDTLNRQIGSSVFRVETQEDGKHIAVGQRNGVETSVVLSDQEYARLQSIDPEGKDKFVFTGGRGGAGHAMVTVASDITEARQRILELLEPKGTGESKGAGESKGVGELRESNSGAENTTETQTSTSTSSLRSDPKLWLALGTVATGLIGLAATGIVQALALTPEPDSPTTTDPDAAASATETATRDQLTKEAFQNPDNQKVNIDELGNAIPSGVLKDDVVANIEEQAKAAGEEAKQQAIENNAQAQKKYDEQQAKRQEELKVSSGAGYGLSGALILGGGIGVAVTAALHRKNQPVEQTTTTTTTTTTTSARTVENKPANNTPAQGNVDTPGSEDTMESRRSSMASTSSTFFDTSSIGTVQNPYADVKTSLHDSQVPTSNSNTSVQNMGNTDSVVYSTIQHPPRDTTDNGARLLGNPSAGIQSTYARLALSGGLRHDMGGLTGGSNSAVNTSNNPPAPGSHRFV"}}, "data": [{"variants_of": "B1", "settings": "with ptn6_human PTPN6, P29350", "values": [{"variant": "Y511F", "effect of a mutation on the interaction": "decreasing interaction"}, {"variant": "Y483F;Y511F", "effect of a mutation on the interaction": "decreasing interaction"}, {"variant": "Y483F", "effect of a mutation on the interaction": "decreasing interaction"}]}, {"variants_of": "B1", "settings": "with ptn6_mouse Ptpn6, P29351", "values": [{"variant": "Y483F;Y511F", "effect of a mutation on the interaction": "decreasing interaction"}]}, {"variants_of": "B2", "settings": "with ptn6_human PTPN6, P29350", "values": [{"variant": "Y490F;Y519F", "effect of a mutation on the interaction": "decreasing interaction"}]}]}
